The target of experiment [1] is beta-catenin (human). The experiment in a line: cell-based or functional assay.
Experiment [2] deals with beta-catenin (human). In words: fluorescence polarization.

*1 amine or outer side, *2 acyl side, *3 side chain or, on linkers, in order; H or OH if unused. Bridges are numbered along the chain shown (N, C = ends). Primed or numbered codes have the meaning given here. [ ]: non-standard residue; d: D form. PyrS2(6) = (S)-3-amino-1-((pent-4-en-1-yloxy)carbonyl)pyrrolidine-3-carboxylic acid, stapled with another olefin-containing amino acid residue through the olefin group, O=C(OCCCC=[*:3])N1CC[C@@](N[*:1])(C(=O)[*:2])C1; B5(4) = 2-amino-2-(pent-4-en-1-yl)hept-6-enoic acid, stapled through each of its two olefin groups with other olefin-containing amino acid residues, O=C(C(CCCC=[*:3])(CCCC=[*:4])N[*:1])[*:2]; PyrS2″ = (S)-3-amino-1-((pent-4-en-1-yloxy)carbonyl)pyrrolidine-3-carboxylic acid (olefin stapling residue), C=CCCCOC(=O)N1CC[C@@](N[*:1])(C(=O)[*:2])C1; PyrS2 = (S)-3-amino-1-((pent-4-en-1-yloxy)carbonyl)pyrrolidine-3-carboxylic acid, olefin staple residue, C=CCCCOC(=O)N1CC[C@@](N[*:1])(C(=O)[*:2])C1; TriAzLys″ = azidolysine residue closed into triazole staple, O=C([C@H](CCCCn1cc([*:3])nn1)N[*:1])[*:2]; Phe(3-COOH) = N[C@@H](Cc1cccc(C(=O)O)c1)C(=O)O; Bta = N[C@@H](Cc1csc2ccccc12)C(=O)O; αAllylPro = C=CC[C@@]1(C(=O)O)CCCN1; tBuAla = CC(C)(C)C[C@H](N)C(=O)O; 3Thi = N[C@@H](Cc1ccsc1)C(=O)O; TriAzLys(3) = not defined here; 2F3MeF(4) = Phe analogue; GlnR = not defined here; sAla = not defined here; PL3 = not defined here; B5 = not defined here; Aib = CC(C)(N)C(=O)O Some results are limits rather than exact numbers.

7 molecules from patent US20260207704A1, “STAPLED PEPTIDES AND METHODS THEREOF” (priority 2022, published 2026) can be followed below.

Usually IC50 stands for the midpoint of a concentration-inhibition curve. The low end stands for greater potency in that assay, the high end for weaker potency in that assay.

Chain of beta-catenin (human) (B6V8E6 146-665 limits assumed): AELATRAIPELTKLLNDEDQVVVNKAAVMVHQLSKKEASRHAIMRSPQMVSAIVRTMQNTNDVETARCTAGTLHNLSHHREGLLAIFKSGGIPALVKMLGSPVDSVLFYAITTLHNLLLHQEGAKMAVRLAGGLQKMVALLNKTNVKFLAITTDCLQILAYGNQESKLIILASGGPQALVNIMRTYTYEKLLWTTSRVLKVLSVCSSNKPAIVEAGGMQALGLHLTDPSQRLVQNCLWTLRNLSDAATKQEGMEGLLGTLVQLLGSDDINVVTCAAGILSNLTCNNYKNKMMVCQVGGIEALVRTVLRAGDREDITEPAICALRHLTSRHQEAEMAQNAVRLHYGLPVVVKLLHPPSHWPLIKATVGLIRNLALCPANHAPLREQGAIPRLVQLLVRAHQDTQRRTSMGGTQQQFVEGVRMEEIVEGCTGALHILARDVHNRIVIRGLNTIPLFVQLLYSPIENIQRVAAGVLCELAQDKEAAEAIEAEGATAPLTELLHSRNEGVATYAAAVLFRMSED

B1: I-31 (peptide)
peptide: Ac-[αAllylPro]D[tBuAla][B5(4)]D[Phe(3-COOH)][TriAzLys(3)]AF[sAla][PyrS2(6)][2F3MeF(4)][Bta]Q-NH2
modifications: triazole 7-10; not fully specified (bridges); printed as Ac-PL3-Asp-Npg-B5-Asp-3COOHF-TriAzLys*3-Ala-Phe-sAla*3-PyrS2-2F3MeF-BztA-Gln-NH2; reading uncertain
In experiment [1], B1 registered a NanoBRET Abs IC50 of over 10000 nM. In experiment [2], the IC50 is under 50 nM.

B2: I-29 (peptide)
peptide: Ac-[αAllylPro]D[tBuAla][B5(4)]DD[TriAzLys(3)]AF[sAla][PyrS2(6)][3Thi][Bta]Q-NH2
modifications: triazole 7-10; not fully specified (bridges); printed as Ac-PL3-Asp-Npg-B5-Asp-Asp-TriAzLys*3-Ala-Phe-sAla*3-PyrS2-3Thi-BztA-Gln-NH2; reading uncertain
Turning to B2, the NanoBRET Abs IC50 in experiment [1] was over 10000 nM. This molecule also returned an IC50 in experiment [2] of under 50 nM.

B3: I-25 (peptide)
peptide: Ac-[αAllylPro]D[tBuAla][B5(4)]D[Phe(3-COOH)]AAF[sAla][PyrS2(6)][2F3MeF(4)][Bta][TriAzLys(3)]-NH2
modifications: triazole 10-14; not fully specified (bridges); printed as Ac-PL3-Asp-Npg-B5-Asp-3COOHF-Ala-Ala-Phe-sAla*3-PyrS2-2F3MeF-BztA-TriAzLys*3-NH2; reading uncertain
In turn, B3 gave a NanoBRET Abs IC50 (bin >3.0 uM) in experiment [1] of under 10000 nM. The molecule also returned an IC50 in experiment [2] of under 50 nM.

B4: I-30 (peptide)
peptide: Ac-[αAllylPro]D[tBuAla][B5(4)]D[Phe(3-COOH)][TriAzLys(3)]AF[sAla][PyrS2(6)][3Thi][Bta]Q-NH2
modifications: triazole 7-10; not fully specified (bridges); printed as Ac-PL3-Asp-Npg-B5-Asp-3COOHF-TriAzLys*3-Ala-Phe-sAla*3-PyrS2-3Thi-BztA-Gln-NH2; reading uncertain
Take B4: the NanoBRET Abs IC50 in experiment [1] is over 10000 nM. In addition, the IC50 in experiment [2] is under 50 nM.

B5: I-23 (peptide)
peptide: Ac-[PL3]D[tBuAla][B5(4)]DDAAF[sAla][PyrS2″][3Thi][Bta][TriAzLys″]-NH2
modifications: triazole 10-14; not fully specified (bridges); printed as Ac-PL3-Asp-Npg-B5-Asp-Asp-Ala-Ala-Phe-sAla*3-PyrS2-3Thi-BztA-TriAzLys*3-NH2; reading uncertain
Turning to B5, the NanoBRET Abs IC50 (bin >3.0 uM) in experiment [1] is under 10000 nM. In experiment [2], this molecule returned an IC50 of under 50 nM.

B6: I-66 (peptide)
peptide: Ac-[αAllylPro]D[tBuAla][B5]D[Phe(3-COOH)][Aib]AFK[PyrS2][3Thi][Bta][GlnR]A-NH2
modifications: staple 1-4, 4-11; lactam 10-14; not fully specified; printed as Ac-PL3-Asp-Npg-B5-Asp-3COOHF-Aib-Ala-Phe-Lys*3-PyrS2-3Thi-BztA-GlnR*3-Ala-NH2; reading uncertain
Regarding B6, in experiment [1], the AXIN2 expression IC50, COLO320DM cells was found to be 300 nM; the AXIN2 expression IC50, DLD1 cells worked out at 1600 nM; the SP5 expression IC50, DLD1 cells amounted to 1300 nM. The molecule further returned an IC50 in experiment [2] of under 50 nM.

B7: I-24 (peptide)
peptide: Ac-[αAllylPro]D[tBuAla][B5(4)]D[Phe(3-COOH)]AAF[sAla][PyrS2(6)][3Thi][Bta][TriAzLys(3)]-NH2
modifications: triazole 10-14; not fully specified (bridges); printed as Ac-PL3-Asp-Npg-B5-Asp-3COOHF-Ala-Ala-Phe-sAla*3-PyrS2-3Thi-BztA-TriAzLys*3-NH2; reading uncertain
With B7, the NanoBRET Abs IC50 (bin >3.0 uM) in experiment [1] is under 10000 nM. In addition, the IC50 in experiment [2] is under 50 nM.
